# Source: the supplement of paper PMC10724198
# ± gives the standard deviation of the averaged measurements.
# What was measured:
# Saccharomyces cerevisiae [1] = experiment: protein stability index of tFT-peptide fusion (C-terminal peptide) (PSI (0-1 scale)); higher = more stable (slower turnover)
# Protocol: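 MPS profiling in S. cerevisiae of the tFT-X12 degron library: putative degron peptides plus stable controls, 12 aa, fused to the C-terminus of a sfGFP-mCherry timer. Cells are FACS-sorted into 8 mCherry/sfGFP bins and deep-sequenced. PSI runs from 0 (unstable) to 1 (stable). Backgrounds are wild type, das1Δ and doa10Δ at 30 °C, and wild type, das1Δ, cdc34-1 and cdc53-1 at 37 °C; 2-3 technical replicates each.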
# Saccharomyces cerevisiae [2] = experiment: as above; settings: genetic background: wild type; temperature: 30 C
# [3] = genetic background: cdc34-1, temperature: 37 C
# [4] = genetic background: cdc53-1, temperature: 37 C
# [5] = genetic background: das1 deletion, temperature: 30 C
# [6] = genetic background: das1 deletion, temperature: 37 C
# [7] = genetic background: doa10 deletion, temperature: 30 C
# [8] = genetic background: wild type, temperature: 30 C
# [9] = genetic background: wild type, temperature: 37 C
# 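Further: PSI is a weighted mean of sequencing reads over stability bins, variants kept only with over 10 reads, mCherry proximal and sfGFP distal, peptide attached via GGGS linker.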
Sequence,protein stability index (Saccharomyces cerevisiae [1]; [3]),protein stability index (Saccharomyces cerevisiae [1]; [4]),protein stability index (Saccharomyces cerevisiae [1]; [5]),protein stability index (Saccharomyces cerevisiae [1]; [6]),protein stability index (Saccharomyces cerevisiae [1]; [7]),protein stability index (Saccharomyces cerevisiae [1]; [8]),protein stability index (Saccharomyces cerevisiae [1]; [9]),protein stability index (Saccharomyces cerevisiae [2])
GGIRLRVRFFVI,0.584 ± 0.061,0.658 ± 0.011,0.53 ± 0.026,0.6152 ± 0.0058,0.158 ± 0.0059,0.168 ± 0.023,0.236 ± 0.016,0.247 ± 0.019
GGSGGVSWRRVV,0.68 ± 0.034,0.735 ± 0.0088,0.654 ± 0.011,0.725 ± 0.01,0.223 ± 0.019,0.264 ± 0.018,0.546 ± 0.051,0.395 ± 0.022
GGSIKRFVILVL,0.416 ± 0.027,0.489 ± 0.0076,0.3 ± 0.044,0.525 ± 0.017,0.259 ± 0.006,0.304 ± 0.024,0.482 ± 0.027,0.406 ± 0.022
GGSKIGFTVGGG,0.686 ± 0.024,0.741 ± 0.017,0.645 ± 0.013,0.738 ± 0.013,0.642 ± 0.018,0.664 ± 0.02,0.725 ± 0.0018,0.721 ± 0.018
GGTGGAGSRGQI,0.641 ± 0.069,0.741 ± 0.01,0.6181 ± 0.0046,0.724 ± 0.02,0.644 ± 0.0041,0.657 ± 0.011,0.7316 ± 0.007,0.499 ± 0.099
GGWFFWVGAWVV,0.173 ± 0.005,0.346 ± 0.028,0.202 ± 0.026,0.3957 ± 0.0013,0.102 ± 0.018,0.121 ± 0.025,0.214 ± 0.0027,0.193 ± 0.0025
GGWRVLHAWVAV,0.651 ± 0.045,0.682 ± 0.012,0.546 ± 0.019,0.6866 ± 0.00041,0.278 ± 0.0058,0.328 ± 0.023,0.553 ± 0.023,0.463 ± 0.015
GGYIINRWRTKN,0.566 ± 0.035,0.709 ± 0.022,0.622 ± 0.016,0.724 ± 0.052,0.113 ± 0.026,0.142 ± 0.021,0.273 ± 0.011,0.27 ± 0.052
GILPIYNIISRL,0.9679 ± 0.0088,0.948 ± 0.019,0.842 ± 0.054,0.891 ± 0.013,0.568 ± 0.016,0.547 ± 0.1,0.84 ± 0.031,0.553 ± 0.28
GITSFFSWSFLS,0.6014 ± 0.0038,0.7537 ± 0.0057,0.682 ± 0.064,0.782 ± 0.055,0.169 ± 0.015,0.172 ± 0.0065,0.366 ± 0.0087,0.237 ± 0.048
GKWFSWNAIWIR,0.0949 ± 0.11,0.0354 ± 0.0075,0.101 ± 0.025,0.1 ± 0.02,0.6114 ± 0.0025,0.0762 ± 0.029,0.101 ± 0.046,0.145 ± 0.049
GLCGVCLVRCVG,0.3008 ± 0.00051,0.412 ± 0.024,0.275 ± 0.031,0.478 ± 0.0052,0.211 ± 0.0051,0.249 ± 0.036,0.393 ± 0.0046,0.338 ± 0.019
GLGMVIIGLLIG,0.176 ± 0.011,0.342 ± 0.09,0.224 ± 0.032,0.432 ± 0.042,0.191 ± 0.0035,0.227 ± 0.01,0.387 ± 0.0056,0.354 ± 0.022
GLLGRCPVVVFG,0.385 ± 0.041,0.397 ± 0.013,0.273 ± 0.04,0.49774 ± 0.00049,0.216 ± 0.013,0.285 ± 0.026,0.463 ± 0.0047,0.378 ± 0.061
GLRFFVSSLLCR,0.502 ± 0.039,0.54807 ± 0.0003,0.389 ± 0.036,0.5651 ± 0.0036,0.377 ± 0.0095,0.388 ± 0.02,0.555 ± 0.021,0.508 ± 0.058
GLVCPWLIVRFV,0.303 ± 0.051,0.3 ± 0.065,0.372 ± 0.036,0.5 ± 0.0067,0.161 ± 0.022,0.136 ± 0.0078,0.216 ± 0.03,0.2 ± 0.015
GLVWSKCFFIVG,0.637 ± 0.041,0.705 ± 0.016,0.547 ± 0.014,0.7105 ± 0.0018,0.2675 ± 0.0018,0.295 ± 0.022,0.528 ± 0.018,0.407 ± 0.033

Sequence,protein stability index (Saccharomyces cerevisiae [1]; [3]),protein stability index (Saccharomyces cerevisiae [1]; [4]),protein stability index (Saccharomyces cerevisiae [1]; [5]),protein stability index (Saccharomyces cerevisiae [1]; [6]),protein stability index (Saccharomyces cerevisiae [1]; [7]),protein stability index (Saccharomyces cerevisiae [1]; [8]),protein stability index (Saccharomyces cerevisiae [1]; [9]),protein stability index (Saccharomyces cerevisiae [2])
GLWLRVCIVAWV,0.0407 ± 0.01,0.122 ± 0.017,0.0686 ± 0.031,0.19 ± 0.0034,0.0424 ± 0.011,0.0551 ± 0.013,0.144 ± 0.0033,0.14 ± 0.0097
GLYLVFMGFVPC,0.471 ± 0.019,0.52714 ± 4.2e-05,0.33 ± 0.053,0.575 ± 0.032,0.3169 ± 0.0022,0.325 ± 0.034,0.505 ± 0.0082,0.47 ± 0.029
GNIHHTRFLALL,0.838 ± 0.04,0.859 ± 0.012,0.7472 ± 0.0026,0.835 ± 0.012,0.485 ± 0.017,0.498 ± 0.013,0.693 ± 0.024,0.458 ± 0.0074
GNSAGSVGGGRF,0.695 ± 0.022,0.738 ± 0.02,0.627 ± 0.012,0.7387 ± 0.0012,0.638 ± 0.024,0.652 ± 0.014,0.7254 ± 0.0028,0.705 ± 0.038
GPILVWVMADWG,0.43 ± 0.036,0.506 ± 0.028,0.328 ± 0.036,0.5493 ± 0.00096,0.293 ± 0.0078,0.337 ± 0.018,0.518 ± 0.012,0.447 ± 0.041
GPVRTEFWLYVW,0.651 ± 0.014,0.704 ± 0.022,0.55 ± 0.041,0.655 ± 0.011,0.57 ± 0.031,0.583 ± 0.049,0.626 ± 0.0066,0.553 ± 0.18
GQRIKWGPIYLT,0.352 ± 0.079,0.336 ± 0.0081,0.366 ± 0.028,0.444 ± 0.013,0.397 ± 0.034,0.22 ± 0.027,0.365 ± 0.052,0.249 ± 0.019
GREGETGSKAGR,0.675 ± 0.008,0.708 ± 0.013,0.64 ± 0.024,0.7282 ± 0.003,0.64 ± 0.027,0.669 ± 0.021,0.717 ± 0.015,0.552 ± 0.17
GRGGLRVVVWLV,0.518 ± 0.069,0.642 ± 0.016,0.496 ± 0.024,0.6652 ± 0.0041,0.11 ± 0.017,0.123 ± 0.022,0.143 ± 0.0029,0.189 ± 0.011
GRGLGHWWTVRT,0.672 ± 0.03,0.756 ± 0.024,0.698 ± 0.017,0.741 ± 0.015,0.689 ± 0.013,0.704 ± 0.0092,0.716 ± 0.012,0.751 ± 0.033
GRVAIFTLLWRI,0.199 ± 0.066,0.105 ± 0.041,0.256 ± 0.063,0.362 ± 0.01,0.469 ± 0.052,0.252 ± 0.032,0.29 ± 0.012,0.314 ± 0.12
GSLHWVMVFAVP,0.604 ± 0.037,0.6404 ± 0.0044,0.491 ± 0.025,0.6582 ± 0.0047,0.493 ± 0.033,0.487 ± 0.016,0.607 ± 0.03,0.489 ± 0.042
GSVCVVCWELVV,0.4883 ± 0.0024,0.583 ± 0.0091,0.344 ± 0.029,0.5561 ± 0.0013,0.26 ± 0.0046,0.293 ± 0.017,0.4792 ± 0.0027,0.378 ± 0.04
GSVGFICCVVVV,0.29 ± 0.022,0.4314 ± 0.0042,0.332 ± 0.03,0.515 ± 0.0078,0.268 ± 0.017,0.298 ± 0.031,0.4546 ± 0.0022,0.412 ± 0.0011
GTETWVFVLLKF,0.102 ± 0.021,0.0712 ± 0.011,0.169 ± 0.036,0.224 ± 0.019,0.302 ± 0.026,0.165 ± 0.013,0.179 ± 0.011,0.218 ± 0.031
GVFFHFFFLFCF,0.332 ± 0.025,0.352 ± 0.01,0.324 ± 0.018,0.447 ± 0.0093,0.3913 ± 0.0038,0.297 ± 0.028,0.413 ± 0.0047,0.43 ± 0.013
